Assay [1] has as its target bispecific effector function silent anti-ANG2/VEGF antibody. The experiment in a line: bridging ELISA (Ex. 2), ANG2 bridges Bi-drug and Dig-drug; ANG2 12.5 ng/mL in cynomolgus pool plasma; cut off 0.05. A general note: An ELISA detects its analyte on a solid surface through an enzyme-linked reagent.
Assay [2] shares this target. The experiment in a line: bridging ELISA (Ex. 2), ANG2 bridges Bi-drug and Dig-drug; ANG2 25 ng/mL in cynomolgus pool plasma; cut off 0.05.
Assay [3] shares this target. The experiment in a line: bridging ELISA (Ex. 2), ANG2 bridges Bi-drug and Dig-drug; ANG2 0.0977 ng/mL in cynomolgus pool plasma; cut off 0.05.
For assay [4] the target is unchanged. In words: bridging ELISA (Ex. 2), ANG2 bridges Bi-drug and Dig-drug; ANG2 0.195 ng/mL in cynomolgus pool plasma; cut off 0.05.
For assay [5] the target is unchanged. The experiment in a line: bridging ELISA (Ex. 2), ANG2 bridges Bi-drug and Dig-drug; ANG2 100 ng/mL in cynomolgus pool plasma; cut off 0.05.
Assay [6] has the same target. In words: bridging ELISA (Ex. 2), ANG2 bridges Bi-drug and Dig-drug; ANG2 0.0489 ng/mL in cynomolgus pool plasma; cut off 0.05.
Assay [7] shares this target. In words: bridging ELISA (Ex. 2), ANG2 bridges Bi-drug and Dig-drug; ANG2 6.25 ng/mL in cynomolgus pool plasma; cut off 0.05.
For assay [8] the target is unchanged. In words: bridging ELISA (Ex. 2), ANG2 bridges Bi-drug and Dig-drug; ANG2 3.13 ng/mL in cynomolgus pool plasma; cut off 0.05.
Assay [9] shares this target. In words: bridging ELISA (Ex. 2), ANG2 bridges Bi-drug and Dig-drug; ANG2 0.391 ng/mL in cynomolgus pool plasma; cut off 0.05.
The target is the same in assay [10]. The experiment in a line: bridging ELISA (Ex. 2), ANG2 bridges Bi-drug and Dig-drug; ANG2 50 ng/mL in cynomolgus pool plasma; cut off 0.05.
Assay [11] shares this target. In words: bridging ELISA (Ex. 2), ANG2 bridges Bi-drug and Dig-drug; ANG2 1.56 ng/mL in cynomolgus pool plasma; cut off 0.05.
For assay [12] the target is unchanged. In words: bridging ELISA (Ex. 2), ANG2 bridges Bi-drug and Dig-drug; ANG2 0.781 ng/mL in cynomolgus pool plasma; cut off 0.05.
Assay [13] has the same target. The experiment in a line: bridging ELISA (Ex. 2), VEGF bridges Bi-drug and Dig-drug; VEGF 12.5 ng/mL in cynomolgus pool plasma.
For assay [14] the target is unchanged. The experiment in a line: bridging ELISA (Ex. 2), VEGF bridges Bi-drug and Dig-drug; VEGF 0.391 ng/mL in cynomolgus pool plasma.
For assay [15] the target is unchanged. The experiment in a line: bridging ELISA (Ex. 2), VEGF bridges Bi-drug and Dig-drug; VEGF 100 ng/mL in cynomolgus pool plasma.
Assay [16] has the same target. The experiment in a line: bridging ELISA (Ex. 2), VEGF bridges Bi-drug and Dig-drug; VEGF 3.13 ng/mL in cynomolgus pool plasma.
For assay [17] the target is unchanged. In words: bridging ELISA (Ex. 2), VEGF bridges Bi-drug and Dig-drug; VEGF 0.0489 ng/mL in cynomolgus pool plasma; cut off 0.05.
The target is the same in assay [18]. In words: bridging ELISA (Ex. 2), VEGF bridges Bi-drug and Dig-drug; VEGF 0.195 ng/mL in cynomolgus pool plasma; cut off 0.05.
For assay [19] the target is unchanged. In words: bridging ELISA (Ex. 2), VEGF bridges Bi-drug and Dig-drug; VEGF 1.56 ng/mL in cynomolgus pool plasma.
Assay [20] has the same target. The experiment in a line: bridging ELISA (Ex. 2), VEGF bridges Bi-drug and Dig-drug; VEGF 50 ng/mL in cynomolgus pool plasma.
Assay [21] has the same target. The experiment in a line: bridging ELISA (Ex. 2), VEGF bridges Bi-drug and Dig-drug; VEGF 0.781 ng/mL in cynomolgus pool plasma.
Assay [22] shares this target. In words: bridging ELISA (Ex. 2), VEGF bridges Bi-drug and Dig-drug; VEGF 25 ng/mL in cynomolgus pool plasma.
The target is the same in assay [23]. The experiment in a line: bridging ELISA (Ex. 2), VEGF bridges Bi-drug and Dig-drug; VEGF 6.25 ng/mL in cynomolgus pool plasma.
Assay [24] concerns the target human Fcgamma receptor I (human) (UniProt P12314). The experiment in a line: SPR BIAcore T100, Bi-huFcyRI on SA-CAP chip, antibody 10 ug/mL injected 60 s, reference-subtracted response after injection. (In general: SPR reads the build-up and loss of mass on a sensor chip optically.)
UniProt P12314, sequence (P12314 16-288 limits assumed): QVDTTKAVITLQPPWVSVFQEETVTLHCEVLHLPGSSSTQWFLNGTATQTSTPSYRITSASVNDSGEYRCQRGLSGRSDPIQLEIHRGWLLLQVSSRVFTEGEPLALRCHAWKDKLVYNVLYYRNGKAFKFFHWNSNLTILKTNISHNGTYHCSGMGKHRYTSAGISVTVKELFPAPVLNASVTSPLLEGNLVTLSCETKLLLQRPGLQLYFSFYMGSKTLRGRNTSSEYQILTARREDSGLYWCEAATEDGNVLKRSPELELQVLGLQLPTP

ANG2, sequence (O15123 19-496 limits assumed): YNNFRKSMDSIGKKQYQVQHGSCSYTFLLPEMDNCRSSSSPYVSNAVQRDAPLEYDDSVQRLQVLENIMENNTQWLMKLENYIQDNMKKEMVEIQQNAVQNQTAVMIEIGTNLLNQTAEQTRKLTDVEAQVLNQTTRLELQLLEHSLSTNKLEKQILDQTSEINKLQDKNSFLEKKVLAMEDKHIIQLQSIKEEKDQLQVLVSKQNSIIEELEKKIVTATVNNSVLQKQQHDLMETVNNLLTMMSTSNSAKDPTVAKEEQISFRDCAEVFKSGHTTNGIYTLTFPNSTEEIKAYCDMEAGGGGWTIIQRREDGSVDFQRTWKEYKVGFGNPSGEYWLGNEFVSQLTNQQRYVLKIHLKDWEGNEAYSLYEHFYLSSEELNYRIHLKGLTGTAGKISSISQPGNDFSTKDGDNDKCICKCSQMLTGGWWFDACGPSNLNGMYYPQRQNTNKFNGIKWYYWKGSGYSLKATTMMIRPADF
VEGF, sequence (P15692 other isoform, or with tags, fused parts or gaps limits assumed): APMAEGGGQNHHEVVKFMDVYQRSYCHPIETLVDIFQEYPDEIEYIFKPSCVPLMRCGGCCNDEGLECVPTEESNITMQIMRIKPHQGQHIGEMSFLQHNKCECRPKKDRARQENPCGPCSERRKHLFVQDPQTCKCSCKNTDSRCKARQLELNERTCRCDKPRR

“ANG2 (from UniProt O15123 19-496) (ligand)”: the OD 405 nm in assay [1] amounted to 0.038 OD 405 nm; in assay [2], 0.052 OD 405 nm; in assay [3], 0.022 OD 405 nm; in assay [4] it was 0.024 OD 405 nm; in [5], 0.14 OD 405 nm; in assay [6], 0.022 OD 405 nm. In addition, the OD 405 nm in assay [7] was 0.031 OD 405 nm; in assay [8], 0.028 OD 405 nm; in [9], 0.022 OD 405 nm; in [10], 0.076 OD 405 nm; in assay [11], 0.024 OD 405 nm; in assay [12] it was 0.024 OD 405 nm.

As to “VEGF (from UniProt P15692 27-191) (ligand)”, the OD 405 nm turned out to be 0.921 OD 405 nm in assay [13]; 0.058 OD 405 nm in assay [14]; 2.83 OD 405 nm in assay [15]; 0.274 OD 405 nm in assay [16]; 0.025 OD 405 nm in assay [17]; 0.039 OD 405 nm in [18]. For the same substance, the OD 405 nm in [19] was 0.138 OD 405 nm; in [20], 2.34 OD 405 nm; in assay [21] it was 0.083 OD 405 nm; in [22], 1.69 OD 405 nm; in [23], 0.51 OD 405 nm.

human IgG1 (antibody): the signal (RU) in assay [24] was determined as 139 RU.

On to “human IgG1 P329G L234A L235A I253A H310A H434A mutations (antibody)”, for which the signal (RU) in assay [24] was 1.8 RU.

In assay [24], “human IgG1 with L234A L235A mutations (antibody)” registered a signal (RU) of 4 RU.

Regarding “human IgG1 with P329G L243A L235A mutations (antibody)”, the signal (RU) in [24] worked out at 1.5 RU.

In [24], human IgG4 (antibody) yielded a signal (RU) of 20.2 RU.

For the substance “human IgG4 with S228P L235E mutations (antibody)”, the signal (RU) in assay [24] is 2.6 RU.

Regarding “human IgM (from UniProt P01871 1-453) (antibody)”, the signal (RU) in [24] was determined as 5.2 RU.

Take mouse IgG1 (antibody): the signal (RU) in assay [24] was 3 RU.

Consider mouse IgG2a (antibody), for which, in [24], the signal (RU) is 31.1 RU.

Values taken from US20170343560A1.
